# Data as given in patent US20160038588A1, “Myostatin Antagonism in Human Subjects” (AMGEN INC., priority 2013, published 2016).
# Key:
# myostatin = target: T1, myostatin (Homo sapiens, UniProt O14793); test: C2C12 pMARE-luc cell based myostatin activity assay
# T1 construct: To produce mature myostatin, the pooled promyostatin was enzymatically cleaved between the propeptide and mature myostatin C terminal; made in house
# T1 sequence (O14793 267-375): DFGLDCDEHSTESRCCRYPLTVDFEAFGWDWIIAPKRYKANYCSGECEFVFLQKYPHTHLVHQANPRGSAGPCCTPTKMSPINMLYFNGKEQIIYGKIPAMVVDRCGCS
# Text: The antagonists including the binding agents described herein can be tested for their ability to bind myostatin and inhibit or block myostatin activity. Any number of assays or animal tests may be used to determine the ability of the agent to inhibit or block myostatin activity. Several assays used for characterizing the peptides and peptibodies of the present invention are described in the Examples below. One assay is the C2C12 pMARE-luc assay which makes use of a myostatin-responsive cell line (C2C12 myoblasts) transfected with a luciferase reporter vector containing myostatin/activin response elements (MARE). Exemplary peptibodies are assayed by pre-incubating a series of peptibody dilutions with myostatin, and then exposing the cells to the incubation mixture. The resulting luciferase activity is determined, and a titration curve is generated from the series of peptibody dilutions. The IC50 (the concentration of peptibody to achieve 50% inhibition of myostatin activity as measured by luciferase activity) was then determined. A second assay described below is a BIAcore® assay to determine the kinetic parameters ka (association rate constant), kd (dissociation rate constant), and KD (dissociation equilibrium constant) for the myostatin binding agents and other antagonists such as antibodies capable of binding myostatin and its receptor. Lower dissociation equilibrium constants (KD, expressed in nM) indicated a greater affinity of the peptibody for myostatin. […] These assays are described in Example 3.
# C2C12 Cell Based Myostatin Activity Assay
# A myostatin-responsive reporter cell line was generated by transfection of C2C12 myoblast cells (ATCC No: CRL-1772) with a pMARE-luc construct. The pMARE-luc construct was made by cloning twelve repeats of the CAGA sequence, representing the myostatin/activin response elements (Dennler et al. EMBO 17: 3091-3100 (1998)) into a pLuc-MCS reporter vector (Stratagene cat #219087) upstream of the TATA box. The myoblast C2C12 cells naturally express myostatin/activin receptors on its cell surface. When myostatin binds the cell receptors, the Smad pathway is activated, and phosphorylated Smad binds to the response element (Macias-Silva et al. Cell 87:1215 (1996)), resulting in the expression of the luciferase gene. Luciferase activity is then measured using a commercial luciferase reporter assay kit (cat # E4550, Promega, Madison, Wis.) according to manufacturer's protocol. A stable line of C2C12 cells that had been transfected with pMARE-luc (C2C12/pMARE clone #44) was used to measure myostatin activity according to the following procedure.
# Equal numbers of the reporter cells (C2C12/pMARE clone #44) were plated into 96 well cultures. A first round screening using two dilutions of peptibodies was performed with the myostatin concentration fixed at 4 nM. Recombinant mature myostatin was preincubated for 2 hours at room temperature with peptibodies at 40 nM and 400 nM respectively. The reporter cell culture was treated with the myostatin with or without peptibodies for six hours. Myostatin activity was measured by determining the luciferase activity in the treated cultures. This assay was used to initially identify peptibody hits that inhibited the myostatin signaling activity in the reporter assay. Subsequently, a nine point titration curve was generated with the myostatin concentration fixed at 4 nM. The myostatin was preincubated with each of the following nine concentrations of peptibodies: […], 0.4 nM, 4 nM, 20 nM, 40 nM, 200 nM, 400 nM, 2 uM and 4 uM for two hours before adding the mixture to the reporter cell culture. The IC50 values were for a number of exemplary peptibodies are provided in Tables III and for affinity matured peptibodies, in Table VIII.
# [1] = In vivo pharmacokinetics in CD1 nu/nu mice; design: species or system mouse; details: 10 mg/kg and 5 mg/kg, peptibodies without LE sequences
# Description: In vivo pharmacokinetics experiments were performed using representative peptibodies without the LE sequences.
# mdx mice = test: Treatment of aged mdx mice (Duchenne muscular dystrophy model); type: in vivo, mouse; details: 10 mg/kg s.c. every other day, three months, vs huFc
# Description: Muscular dystrophy is one of those disorders. The mouse model for Duchenne's muscular dystrophy is the Duchenne mdx mouse (Jackson Laboratories, Bar Harbor, Me.). Aged (10 month old) mdx mice were injected with either the peptibody 1× mTN8-19-33 (n=8/group) or with the vehicle huFc protein (N=6/group) for a three month period of time. The dosing schedule was every other day, 10 mg/kg, by subcutaneous injection.
# CD1 nu/nu mice = test: In vivo anabolic activity in CD1 nu/nu mouse model
# Text: In Vivo Anabolic Activity of Exemplary Peptibodies
# The CD1 nu/nu mouse model (Charles River Laboratories, Massachusetts) was used to determine the in vivo efficacy of the peptibodies of the present invention which included the human Fc region (huFc). This model responded to the inhibitors of the present invention with a rapid anabolic response which was associated with increased dry muscle mass and an increase in myofibrillar proteins but was not associated with accumulation in body water content.
# A group of 10 8 week old CD1 nu/nu mice were treated twice weekly or once weekly with dosages of 1 mg/kg, 3 mg/kg and 10 mg/kg (subcutaneous injection). The control group of 10 8 week old CD1 nu/nu mice received a twice weekly (subcutaneous) injection of huFc (vehicle) at 10 mg/kg. The animals were weighed every other day and lean body mass determined by NMR on day 0 and day 13. The animals are then scarified at day 14 and the size of the gastrocnemius muscle determined.
# In another example, the 1× mTN8-19-32 peptibody was administered to CD1 nu/nu mice in a biweekly injection of 1 mg/kg, 3 mg/kg, 10 mg/kg, and 30 mg/kg compared with the huFc control (vehicle).
# CD1 nu/nu male mice (10 animals per group) were treated with twice weekly injections of 1 mg/kg and 3 mg/kg of 1× mTN8-19-7 and 2× mTN8-19-7 for 35 days, while the control group (10 animals) received twice weekly injections of huFc (3 mg/kg).
# [2] = affinity matured peptibodies, a range of values is given
# [3] = pMARE luc cell-based assay, myostatin 4 nM
Substance,IC50 (myostatin; [2]),also measured
mTN8-19-13: affinity-matured peptibody; peptide MWQQGHCTRWPWMCPPQGWG,20 nM,–
1× mTN8-19-22: 1× affinity-matured peptibody; peptide TFSQGHCTRWPWMCPPQGWG,1.93 to 3.26 nM,half-life [1]: about 50.2 hours
Linear-20: peptibody; peptide YREMSMLEGLLDVLERLQHY,–,IC50 (myostatin; [3]): ~11 nM
mTN8-19-34: affinity-matured peptibody; peptide IPAHGHCTRWPWMCPPQRWR,5.03 to 5.07 nM,–
mTN8-19-23: affinity-matured peptibody; peptide PGAHDHCTRWPWMCPPQSRY,6.58 nM,–
TN12-34: peptibody; peptide AHWCEQGPWRYGNICMAY,–,IC50 (myostatin; [3]): ~30 nM
mTN8-19-27: affinity-matured peptibody; peptide ADTQGHCTRWPWMCPPQHWF,4.84 to 4.92 nM,–
mTN8-19-14: affinity-matured peptibody; peptide EFTQWHCTRWPWMCPPQRSQ,4.07 to 6.56 nM,–
mTN8-19-6: affinity-matured peptibody; peptide GVNQGQCTRWRWMCPPNGWE,17.3 nM,–
mTN8-19 con1: affinity-matured peptibody; peptide VATQGQCTRWPWMCPPQGWG,1 to 4.4 nM,–
1× mTN8-19-33: 1× affinity-matured peptibody; peptide PESQGHCTRWPWMCPPQGWG,2.15 to 2.75 nM,body weight (mdx mice): Significant increases in body weight; fat percentage of body weight (mdx mice): decreased; lean body mass to fat mass ratio (NMR) (mdx mice): significantly increased
mTN8-19-4: affinity-matured peptibody; peptide MITQGQCTRWPWMCPPQPSG,16.7 nM,–
mTN8-19-2: affinity-matured peptibody; peptide YPEQGLCTRWPWMCPPQTLA,7.51 to 34.4 nM,–
1× mTN8-19-32: 1× affinity-matured peptibody; peptide VADHGHCTRWPWMCPPQGWG,1.84 to 3.35 nM,"total body weight (CD1 nu/nu mice; biweekly injection 1, 3, 10, 30 mg/kg vs huFc control): increase in total body weight; lean body mass (NMR) (CD1 nu/nu mice; biweekly injection 1, 3, 10, 30 mg/kg, day 13 compared with day 0): increase"
1× mTN8-19-7: 1× affinity-matured peptibody; peptide LADHGQCIRWPWMCPPEGWE,–,half-life [1]: about 65 hours
mTN8-19-11: affinity-matured peptibody; peptide IYPHDQCTRWPWMCPPQPYP,28.7 nM,–
mTN8-19-5: affinity-matured peptibody; peptide AGAQEHCTRWPWMCAPNDWI,3.5 to 7.74 nM,–
mTN8-19-16: affinity-matured peptibody; peptide YQTQGLCTRWPWMCPPQSQR,4.65 nM,–
mTN8-19-12: affinity-matured peptibody; peptide SYWQGQCTRWPWMCPPQWRG,980 nM,–
mTN8-19-9: affinity-matured peptibody; peptide TQTHAQCTRWPWMCPPQWEG,18.8 to 23 nM,–
mTN8-19-29: affinity-matured peptibody; peptide TLVQGHCTRWPWMCPPQRWV,6.36 nM,–
mTN8-19-24: affinity-matured peptibody; peptide VAEEWHCRRWPWMCPPQDWR,1.67 to 2.93 nM,–
L2: peptibody; peptide MEMLDSLFELLKDMVPISKA,–,inhibition of myostatin activity in cell-based assay (myostatin): inhibit myostatin activity
mTN8-19-10: affinity-matured peptibody; peptide VVTQGHCTLWPWMCPPQRWR,5.25 to 7.4 nM,–
1× mTN8-19-21: 1× affinity-matured peptibody; peptide SEYQGLCTRWPWMCPPQGWK,2.77 to 3.6 nM,"total body weight (CD1 nu/nu mice; 1× peptibody, 1, 3, 10 mg/kg s.c. twice or once weekly, 14 days, vs huFc control): increase in body weight compared with the control"
mTN8-19-28: affinity-matured peptibody; peptide SGPQGHCTRWPWMCAPQGWF,4.39 nM,–
